According to paper PMC5388806:

Biological target: MtrR-MBP (Neisseria gonorrhoeae) (UniProt P39897)
Test: competition EMSA
Settings: 30 ul reaction buffer (composition not stated), room temperature; 6% native PAGE at 4 C; 2 ug MtrR-MBP or 1 ug GdhR-His

Sequence of MtrR-MBP (Neisseria gonorrhoeae) (P39897 whole entry): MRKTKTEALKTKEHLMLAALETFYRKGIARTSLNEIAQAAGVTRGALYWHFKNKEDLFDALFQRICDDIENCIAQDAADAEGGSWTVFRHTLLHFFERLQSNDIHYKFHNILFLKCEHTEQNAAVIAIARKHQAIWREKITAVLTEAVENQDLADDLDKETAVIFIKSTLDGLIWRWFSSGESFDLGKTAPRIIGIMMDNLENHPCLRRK

Row | Sequence | binding
1 | TGCCGTTGACGGCGGGAACGGCGTGTCATTAGAATCCGCCCTGATTGGCCAGTCCAATTTGATGTTTGATGTATTTCGGAAGGGTTCTGCAGGGAATCTTTATAAAGGAGGAGTGATGAAAC (double strand) [R4/R2 (gdhR promoter and downstream)] | binds
2 | CCGTTCCCGCCGTCAACGGCACTTACCTCGCACCGCCCCCGAAACACAGGAAAAAACTACACCAAACTACAATTTTTGTTCATGCAAATATTTGTTTTAACGGGATTTAAATGAAAGCTCCGATTCAAATCTGCCGAACCGCCCAAAAATATATTGACCTGAATATTAAAGTTTCGTAAAGTAATGCAACGTTGCTTTAATTGGTTTGACCACTATTGCCGACGATTAGAAAAATATTTTCGGAGATGTTCAATTATGGAAACTTGGGTTCAAAACTACACGGCAATCGGCG (double strand) [R3/R5 (upstream of gdhR promoter)] | no binding
